Experimental findings from US20250136688A1 (Janssen / Centocor, published 2025) are described below.

Positions count from the first letter of the chain named. Names may count otherwise.

Test [1] addresses T1, Human CD3 epsilon (human, UniProt P07766 23-207).
T1 construct: Stood on human T cells (pan-T cells, isolated donor T cells) as part of the TCR/CD3 complex; the other chains of the complex are not written here; also called CD3ε; CD3R
The test can be described thus: flow cytometry on human PAN-T cells, 60 min at 4 °C. A general note: In flow cytometry, cells or beads pass a laser one at a time.

Test [2] deals with T2, prostate specific membrane antigen (PSMA) (human, UniProt Q04609 1-750).
T2 construct: whole, on cells
T2 sequence (Q04609 whole entry): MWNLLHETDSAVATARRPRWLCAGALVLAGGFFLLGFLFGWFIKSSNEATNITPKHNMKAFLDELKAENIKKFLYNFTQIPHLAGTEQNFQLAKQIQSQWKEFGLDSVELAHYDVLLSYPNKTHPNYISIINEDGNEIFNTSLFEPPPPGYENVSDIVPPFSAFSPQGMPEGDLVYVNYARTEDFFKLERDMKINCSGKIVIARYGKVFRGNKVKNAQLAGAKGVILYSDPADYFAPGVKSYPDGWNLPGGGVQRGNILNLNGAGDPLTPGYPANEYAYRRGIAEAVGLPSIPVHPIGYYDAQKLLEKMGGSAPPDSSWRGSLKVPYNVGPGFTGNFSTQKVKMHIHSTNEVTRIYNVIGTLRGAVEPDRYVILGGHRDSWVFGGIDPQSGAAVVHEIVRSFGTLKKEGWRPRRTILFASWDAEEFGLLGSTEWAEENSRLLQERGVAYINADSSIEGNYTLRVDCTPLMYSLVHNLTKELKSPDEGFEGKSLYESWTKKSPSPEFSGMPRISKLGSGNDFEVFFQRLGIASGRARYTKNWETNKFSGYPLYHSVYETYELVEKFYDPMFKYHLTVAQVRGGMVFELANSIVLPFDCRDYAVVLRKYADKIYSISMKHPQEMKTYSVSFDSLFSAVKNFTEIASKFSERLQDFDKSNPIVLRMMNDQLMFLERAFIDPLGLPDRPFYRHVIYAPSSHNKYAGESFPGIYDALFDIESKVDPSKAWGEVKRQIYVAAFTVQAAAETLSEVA
The test can be described thus: flow cytometry on LNCaP cells, 30 min at 37 °C.

Test [3] addresses T2, prostate specific membrane antigen …. The experiment in a line: cell-based or functional assay.
Test [4] has as its target T3, human GUCY2C (human, UniProt P25092 24-1073). The experiment in a line: cell-based or functional assay.
Test [5] addresses T3, human GUCY2C. The experiment in a line: flow cytometry on T84 cells, 1 hour at 37 °C.
Another test has as its target T4, cynomolgus monkey CD3 (cynomolgus monkey, UniProt Q95LI5 22-198).
T4 construct: whole, on cells; also called cyno CD3; NHP CD3
The test can be described thus: not described.

The target in test [6] is T1, Human CD3 epsilon. The test can be described thus: flow cytometry on primary T cells, 1 hour at 37 °C.
In test [7] the target is T5, human claudin 18.2 (human, UniProt P56856-2 1-261).
T5 construct: whole, on cells; also called CLDN18.2
T5 sequence (looked up): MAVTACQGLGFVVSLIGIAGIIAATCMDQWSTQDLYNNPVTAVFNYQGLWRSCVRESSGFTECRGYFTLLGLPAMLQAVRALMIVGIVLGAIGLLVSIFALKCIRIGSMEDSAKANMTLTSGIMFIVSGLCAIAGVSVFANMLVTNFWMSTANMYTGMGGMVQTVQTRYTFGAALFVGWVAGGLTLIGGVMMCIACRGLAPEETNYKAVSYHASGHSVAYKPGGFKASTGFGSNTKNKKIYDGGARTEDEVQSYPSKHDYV
The experiment in a line: flow cytometry on NCI-H146 cells, 1 hr at 37 °C.

Test [8] deals with T5, human claudin 18.2. The experiment in a line: flow cytometry on GSU cells, 1 hr at 37 °C.
The target of test [9] is T5, human claudin 18.2. The experiment in a line: flow cytometry on SK-CO-1 cells, 1 hour at 37 °C.
The target of the next test is cyno GUCY2C (cynomolgus monkey, UniProt A0A2K5TZ02 16-1015). The experiment in a line: flow cytometry on CHO-cynoGUCY2C cells, 60 min at 37 °C.
Sequence of cyno GUCY2C (A0A2K5TZ02 entry or part of it): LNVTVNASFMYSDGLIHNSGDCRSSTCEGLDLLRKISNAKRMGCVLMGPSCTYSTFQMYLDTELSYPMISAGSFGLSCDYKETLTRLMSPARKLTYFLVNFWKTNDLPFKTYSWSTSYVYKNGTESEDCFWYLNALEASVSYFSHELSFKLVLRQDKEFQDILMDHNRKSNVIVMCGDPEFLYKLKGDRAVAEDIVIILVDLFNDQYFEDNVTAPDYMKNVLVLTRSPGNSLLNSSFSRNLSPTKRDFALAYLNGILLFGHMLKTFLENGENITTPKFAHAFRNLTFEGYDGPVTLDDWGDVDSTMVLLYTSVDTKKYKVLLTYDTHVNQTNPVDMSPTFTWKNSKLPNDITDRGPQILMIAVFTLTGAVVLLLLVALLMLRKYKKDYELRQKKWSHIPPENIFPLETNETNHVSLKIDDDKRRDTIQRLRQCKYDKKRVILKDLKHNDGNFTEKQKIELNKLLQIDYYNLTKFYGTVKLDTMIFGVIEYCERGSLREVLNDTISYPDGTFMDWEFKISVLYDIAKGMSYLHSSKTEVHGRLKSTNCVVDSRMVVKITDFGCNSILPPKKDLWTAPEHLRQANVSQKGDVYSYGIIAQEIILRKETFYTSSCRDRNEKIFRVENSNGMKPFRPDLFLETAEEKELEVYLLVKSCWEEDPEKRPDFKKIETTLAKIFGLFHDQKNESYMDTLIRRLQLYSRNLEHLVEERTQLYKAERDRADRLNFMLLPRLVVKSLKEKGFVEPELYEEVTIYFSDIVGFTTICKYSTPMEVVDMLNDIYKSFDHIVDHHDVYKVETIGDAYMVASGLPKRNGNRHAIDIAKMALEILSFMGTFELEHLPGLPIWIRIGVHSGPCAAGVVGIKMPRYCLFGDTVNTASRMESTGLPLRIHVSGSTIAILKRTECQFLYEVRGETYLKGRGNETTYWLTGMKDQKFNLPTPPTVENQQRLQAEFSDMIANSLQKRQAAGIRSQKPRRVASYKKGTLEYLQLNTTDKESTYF
In test [10] the target is T3, human GUCY2C. The test can be described thus: flow cytometry on CHO-huGUCY2C cells, 60 min at 37 °C.

T3 sequence (P25092 24-1073): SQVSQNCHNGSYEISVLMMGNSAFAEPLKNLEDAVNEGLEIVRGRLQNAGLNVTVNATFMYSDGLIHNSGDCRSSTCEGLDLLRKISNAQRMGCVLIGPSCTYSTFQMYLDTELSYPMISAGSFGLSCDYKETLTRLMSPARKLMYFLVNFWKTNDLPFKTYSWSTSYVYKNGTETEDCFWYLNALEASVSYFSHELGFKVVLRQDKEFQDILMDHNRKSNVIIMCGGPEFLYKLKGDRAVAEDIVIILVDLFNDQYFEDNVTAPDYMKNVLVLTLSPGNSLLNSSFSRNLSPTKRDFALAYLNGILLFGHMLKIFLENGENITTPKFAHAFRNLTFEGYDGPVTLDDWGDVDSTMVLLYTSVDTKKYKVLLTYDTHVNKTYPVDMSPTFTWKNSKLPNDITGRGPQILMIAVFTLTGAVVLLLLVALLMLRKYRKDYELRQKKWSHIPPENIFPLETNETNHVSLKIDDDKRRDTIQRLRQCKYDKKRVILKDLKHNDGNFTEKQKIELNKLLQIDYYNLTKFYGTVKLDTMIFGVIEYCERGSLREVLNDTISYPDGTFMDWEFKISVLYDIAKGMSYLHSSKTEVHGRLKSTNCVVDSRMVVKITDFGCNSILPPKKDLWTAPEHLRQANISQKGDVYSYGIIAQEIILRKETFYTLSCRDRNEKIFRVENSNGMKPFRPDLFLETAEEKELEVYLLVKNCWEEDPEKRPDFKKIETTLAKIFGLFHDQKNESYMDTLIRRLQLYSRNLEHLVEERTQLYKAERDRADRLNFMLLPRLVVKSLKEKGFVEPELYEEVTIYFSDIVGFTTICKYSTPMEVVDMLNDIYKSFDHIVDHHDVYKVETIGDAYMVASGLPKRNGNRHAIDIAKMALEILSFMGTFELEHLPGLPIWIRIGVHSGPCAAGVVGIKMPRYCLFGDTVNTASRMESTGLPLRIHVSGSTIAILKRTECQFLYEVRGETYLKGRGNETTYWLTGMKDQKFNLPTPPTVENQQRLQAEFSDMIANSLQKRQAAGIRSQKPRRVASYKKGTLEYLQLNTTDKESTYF
T1 sequence (P07766 23-207 limits assumed): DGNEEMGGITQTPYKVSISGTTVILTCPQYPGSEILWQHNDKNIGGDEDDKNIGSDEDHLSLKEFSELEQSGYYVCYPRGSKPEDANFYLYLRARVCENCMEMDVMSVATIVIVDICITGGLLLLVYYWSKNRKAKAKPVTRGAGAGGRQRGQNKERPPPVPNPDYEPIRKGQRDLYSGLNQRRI
T4 sequence (Q95LI5 22-198): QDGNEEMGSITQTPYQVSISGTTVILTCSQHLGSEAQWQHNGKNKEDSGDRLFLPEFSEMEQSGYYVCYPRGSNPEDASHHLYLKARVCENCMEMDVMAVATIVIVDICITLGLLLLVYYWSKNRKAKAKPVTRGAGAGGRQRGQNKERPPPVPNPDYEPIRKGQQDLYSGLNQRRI

B1: stapled PSMA×CD3 antibody (PS3B2040) (bispecific antibody, human IgG1, lambda, L234A L235A)
heavy: EVQLVESGGGLVQPGGSLRLSCAASGFTFSSYAMSWVRQAPGKGLEWVSAISGGIGSTYYADSVKGRFTISRDNSKNTLWLQMNSLRAEDTAVYYCAKDAVGATPYYFDYWGQGTLVTVSSASTKGPSVFPLAPSSKSTSGGTAALGCLVKDYFPEPVTVSWNSGALTSGVHTFPAVLQSSGLYSLSSVVTVPSSSLGTQTYICNVNHKPSNTKVDKKVEPKSCDKTHTCPPCPAPEAAGGPSVFLFPPKPKDTLMISRTPEVTCVVVSVSHEDPEVKFNWYVDGVEVHNAKTKPREEQYNSTYRVVSVLTVLHQDWLNGKEYKCKVSNKALPAPIEKTISKAKGQPREPQVYTLPPSREEMTKNQVSLSCAVKGFYPSDIAVEWESNGQPENNYKTTPPVLDSDGSFFLVSKLTVDKSRWQQGNVFSCSVMHEALHNRFTQKSLSLSPGK
light: QSVLTQPPSVSAAPGQKVTISCSGSSSNIGINYVSWYQQLPGTAPKLLIYDNNKRPSGIPDRFSGSKSGTSATLGITGLQTGDEADYYCGTWDSSLSAVVFGGGTKLTVLGQPKAAPSVTLFPPSSEELQANKATLVCLISDFYPGAVTVAWKADSSPVKAGVETTTPSKQSNNKYAASSYLSLTPEQWKSHRSYSCQVTHEGSTVEKTVAPTECS
chain: EIVLTQSPATLSASPGERVTLSCSASSSVSYMNWYQQKPGCAPRRWIYDSSKLASGVPARFSGSGSGRDYTLTISSLEPEDFAVYYCQQWSRNPPTFGGGTKVEIKGGGSGGSGGCPPCGGSGGQVQLVQSGAEVKKPGSSVKVSCKASGYTFTRSTMHWVKQAPGQGLEWIGYINPSSAYTNYNQKFQGRVTLTADKSTSTAYMELSSLRSEDTAVYYCASPQVHYDYAGFPYWGCGTLVTVSSEPKSSDKTHTCPPCPAPEAAGGPSVFLFPPKPKDTLMISRTPEVTCVVVSVSHEDPEVKFNWYVDGVEVHNAKTKPREEQYNSTYRVVSVLTVLHQDWLNGKEYKCKVSNKALPAPIEKTISKAKGQPREPQVYTLPPSREEMTKNQVSLWCLVKGFYPSDIAVEWESNGQPENNYKTTPPVLDSDGSFFLYSKLTVDKSRWQQGNVFSCSVMHEALHNHYTQKSLSLSPGK
notes: HC1/LC1 = anti-PSMA Fab arm (PSMB896-G100A-Fab); HC2 = anti-CD3 spFv-Fc (CD3B2030 N106A, VL-linker-VH); knob-in-hole IgG1; also called stapled PSMA×CD3 bispecific
For the molecule B1, the binding result with Human CD3 epsilon [1] is “binds”. Further, in test [2], a half-maximal response (EC50) required 11.6 nM. In addition, in test [3], the “cytotoxicity EC50 (% tumor lysis, Incucyte), LNCaP cells with human PBMCs, E:T 3:1” value was 0.051 nM and the “cytotoxicity EC50 (% tumor lysis, Incucyte), LNCaP cells with human Pan T cells, E:T 3:1” value turned out to be 0.06 nM.

B2: GUCY2C×CD3_biAb-1 (bispecific antibody, human IgG1, kappa, L234A L235A)
heavy: QVQLQESGPGLVKPSETLSLTCTVSGASISHYYWSWIRRPAGKGLEWIGRIYTSGSTNYNPSLKSRVTVSVDTSKNQFSLKLSSVTAADTAVYYCARDRYTGYFDLWGRGTLVTVSSASTKGPSVFPLAPSSKSTSGGTAALGCLVKDYFPEPVTVSWNSGALTSGVHTFPAVLQSSGLYSLSSVVTVPSSSLGTQTYICNVNHKPSNTKVDKKVEPKSCDKTHTCPPCPAPEAAGGPSVFLFPPKPKDTLMISRTPEVTCVVVSVSHEDPEVKFNWYVDGVEVHNAKTKPREEQYNSTYRVVSVLTVLHQDWLNGKEYKCKVSNKALPAPIEKTISKAKGQPREPQVYTLPPSREEMTKNQVSLSCAVKGFYPSDIAVEWESNGQPENNYKTTPPVLDSDGSFFLVSKLTVDKSRWQQGNVFSCSVMHEALHNRFTQKSLSLSPGK
light: not shown
chain: B1 chain
notes: HC2 = CD3_spFv-1-Fc (knob); IgG1 with L234A/L235A/D265S; also called GUCY2CxCD3 bisp-Ab1; GUCY2C-CD3-bisp-Ab1
B2: in the test with human GUCY2C [4], the “Tumor killing EC50 (nM), HT-55” value turned out to be 0.8 nM and the “Tumor killing EC50 (nM), LS1034” value worked out at 0.04 nM. The midpoint of the response with human GUCY2C [5], the EC50, lay at 12 nM. The binding result with cynomolgus monkey CD3 was “no binding”. In the test with Human CD3 epsilon [6], a half-maximal response (EC50) required 108 nM.

B3: CLDN18.2xCD3 bisp-Ab4 (bispecific antibody)
heavy: EVQLLESGGGLVQPGGSLRLSCAASGFIFSNYYMAWVRLAPGKGLEWVSSISIGGGKSHYADSVKGRFTISRDNSKNTLYLQMNSLRAEDTAVYYCVRHPQLGPNPFDYWGQGTLVTVSSASTKGPSVFPLAPSSKSTSGGTAALGCLVKDYFPEPVTVSWNSGALTSGVHTFPAVLQSSGLYSLSSVVTVPSSSLGTQTYICNVNHKPSNTKVDKKVEPKSCDKTHTCPPCPAPEAAGGPSVFLFPPKPKDTLMISRTPEVTCVVVSVSHEDPEVKFNWYVDGVEVHNAKTKPREEQYNSTYRVVSVLTVLHQDWLNGKEYKCKVSNKALPAPIEKTISKAKGQPREPQVYTLPPSREEMTKNQVSLSCAVKGFYPSDIAVEWESNGQPENNYKTTPPVLDSDGSFFLVSKLTVDKSRWQQGNVFSCSVMHEALHNRFTQKSLSLSPGK
light: DIQMTQSPSSLSASVGDRVTITCRASQSVTISSVDLMNWYQQKPGKAPKLLIYRASNLASGIPSRFSGSGSGTDFTLTISSLQPEDFATYYCQQSRESPYTFGQGTKLEIKRTVAAPSVFIFPPSDEQLKSGTASVVCLLNNFYPREAKVQWKVDNALQSGNSQESVTEQDSKDSTYSLSSTLTLSKADYEKHKVYACEVTHQGLSSPVTKSFNRGEC
chain: EIVLTQSPATLSASPGERVTLSCSASSSVSYMNWYQQKPGCAPRRWIYDSSKLASGVPARFSGSGSGRDYTLTISSLEPEDFAVYYCQQWSRNPPTFGGGTKVEIKGGGSGGSGGCPPCGGSGGQVQLVQSGAEVKKPGSSVKVSCKASGYTFTRSTMHWVKQAPGQGLEWIGYINPSSAYTNYNQKFQGRVTLTADKSTSTAYMELSSLRSEDTAVYYCASPQVHYDYAGFPYWGCGTLVTVSS
notes: The entry for the CD3 arm holds only the spFv; also called CLDN18.2×CD3 bisp-Ab4; not shown: IgG1 hinge-CH2-CH3 with L234A/L235A/D265S and heterodimerization mutations
Regarding B3, the EC50 – broadly, the concentration needed to bring the measured effect to its halfway point – was 23 nM in the test with human claudin 18.2 [7], 74 nM with human claudin 18.2 [8] and 41.3 nM in the test with human claudin 18.2 [9].

B4: CLDN18.2xCD3 bisp-Ab1 (bispecific antibody)
heavy: B3 heavy with H59S
light: B3 light
chain: B3 chain
notes: not shown: IgG1 hinge-CH2-CH3 with L234A/L235A/D265S and heterodimerization mutations
Molecule B4 registered an EC50 with human claudin 18.2 [9] of 12.7 nM.

B5: CLDN18.2xCD3 bisp-Ab3 (bispecific antibody)
heavy: B3 heavy with L102S
light: B3 light
chain: B3 chain
notes: The entry for the CD3 arm holds only the spFv; not shown: IgG1 hinge-CH2-CH3 with L234A/L235A/D265S and heterodimerization mutations
Regarding B5, in the test with human claudin 18.2 [9], the EC50 was found to be 229 nM.

B6: CLDN18.2xCD3 bisp-Ab2 (bispecific antibody)
heavy: B3 heavy with Q101S
light: B3 light
chain: B3 chain
notes: as for B5
For the molecule B6, a half-maximal response in the test with human claudin 18.2 [9] (EC50) required 193 nM.

B7: GUCY2C_mAb (antibody, V domains shown)
VH: QVQLQESGPGLVKPSETLSLTCTVSGASISHYYWSWIRRPAGKGLEWIGRIYTSGSTNYNPSLKSRVTVSVDTSKNQFSLKLSSVTAADTAVYYCARDRYTGYFDLWGRGTLVTVSS
VL: not shown
notes: also called GUCYC2_mAb
As to B7, the EC50 with cyno GUCY2C is 8.7 nM; in the test with human GUCY2C [10] it was 4.6 nM.
